Data published in US20240287172A1 (SCIRHOM, published 2024).
Substitutions are numbered along the chain they refer to.

T1: hiR2-FL-T522A-T7 (human, UniProt Q6PJF5 1-856)
T1 sequence: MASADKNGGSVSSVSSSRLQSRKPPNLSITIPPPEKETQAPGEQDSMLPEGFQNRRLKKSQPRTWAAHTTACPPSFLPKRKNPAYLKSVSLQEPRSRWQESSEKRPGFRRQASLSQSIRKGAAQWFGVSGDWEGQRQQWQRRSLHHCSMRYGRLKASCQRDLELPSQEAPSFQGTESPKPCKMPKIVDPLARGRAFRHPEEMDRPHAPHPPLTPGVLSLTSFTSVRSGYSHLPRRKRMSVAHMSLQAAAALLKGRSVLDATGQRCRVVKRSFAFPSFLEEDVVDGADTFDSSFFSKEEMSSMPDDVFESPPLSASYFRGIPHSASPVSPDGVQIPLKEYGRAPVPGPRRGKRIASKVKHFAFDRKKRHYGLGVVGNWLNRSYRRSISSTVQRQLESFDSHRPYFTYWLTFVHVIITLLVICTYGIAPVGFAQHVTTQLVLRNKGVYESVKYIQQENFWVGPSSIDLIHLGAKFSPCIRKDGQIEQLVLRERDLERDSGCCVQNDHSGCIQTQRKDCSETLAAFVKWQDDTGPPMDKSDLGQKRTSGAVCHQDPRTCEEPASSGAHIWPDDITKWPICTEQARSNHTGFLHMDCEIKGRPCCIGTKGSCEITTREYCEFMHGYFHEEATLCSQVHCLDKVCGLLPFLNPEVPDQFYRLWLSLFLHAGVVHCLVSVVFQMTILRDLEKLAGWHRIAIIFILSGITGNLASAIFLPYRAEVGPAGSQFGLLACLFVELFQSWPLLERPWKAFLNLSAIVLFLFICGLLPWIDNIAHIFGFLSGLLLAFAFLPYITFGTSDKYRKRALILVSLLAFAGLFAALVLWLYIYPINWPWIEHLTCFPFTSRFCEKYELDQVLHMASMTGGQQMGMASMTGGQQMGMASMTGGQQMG

T2: hiR2-FL-D592A-T7 (human, UniProt Q6PJF5 1-856)
T2 sequence: T1 sequence with A522T, D592A

B1: antibody 48 (antibody, V domains shown)
VH: QVQLQQSGTELVRPGTSVKVSCKASGYAFTNYLIEWVKQRPGQGLEWIGVINPGSGFTKYNEKFKGKATLTADKSSSTVYMHLSSLTSEDSAVYFCARGLYRAMDYWGQGTSVTVSS
VL: DIQMTQSPASQSASLGESVTITCLASQTIATWLAWYQQKPGKSPQLLIYGATTLADGVPSRFSGGGSGTKFSFKISSLQAEDFVSYYCQQLYSTPYTFGGGTKLEIK
notes: mouse IgG, kappa light chain; also called clone #48; purified antibody 48
B2: antibody 50 (antibody, V domains shown)
VH: B1 VH with T9A, T16A, T30S, V79A, H82Q
VL: B1 VL with A30G, G50A, T52A, T53S, S85N, L91I
notes: mouse IgG, kappa light chain; also called clone #50; purified antibody 50

Columns and labels:
[1] = target: T1, hiR2-FL-T522A-T7; test: FACS on MEF-DKO cells expressing the variant, 3 µg/ml antibody
Procedure, shortened: (§1)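 Read-out is PE fluorescence by flow cytometry after two-step staining: antibody at 3 μg/ml for 1 hour on ice, then PE-labelled goat anti-mouse IgG F(ab′)2 (1:100) for 1 hour on ice.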

[2] = target: T2, hiR2-FL-D592A-T7; test: as above
Procedure, shortened: as §1

Binder | loss of binding vs wild type [1] [%] | loss of binding vs wild type [2] [%]
B1 | ≥ 30 | ≥ 60
B2 | ≥ 30 | ≥ 60
